Measurements from publication PMC8502904, “Glyceraldehyde-3-phosphate dehydrogenase present in extracellular vesicles from Leishmania major suppresses host TNF-alpha expression”.

Tests used:
[1] = target: T1, LmGAPDH (glyceraldehyde-3-phosphate dehydrogenase) (Leishmania major (strain 5ASKH), UniProt Q4Q6Z5 1-361); assay: EMSA; no complex also at higher LmGAPDH concentrations; details: protein: recombinant; tags: His tag (pET15B NdeI/BamHI, Ni-NTA); chain copies: 4; label: 3' biotin; single strand
[2] = target: T1, LmGAPDH (glyceraldehyde-3-phosphate …); assay: EMSA; concentration dependent; supershift with anti-LmGAPDH; details: protein: recombinant; tags: His tag (pET15B NdeI/BamHI, Ni-NTA); chain copies: 4; label: 3' biotin; single strand
[3] = target: T1, LmGAPDH (glyceraldehyde-3-phosphate …); assay: competition; about 200-fold excess unlabeled RNA competes with labeled N1; details: protein: recombinant; tags: His tag (pET15B NdeI/BamHI, Ni-NTA); chain copies: 4; label: none; single strand

B1: TNF-alpha 5'-UTR oligonucleotide (ssRNA)
RNA: AGAACAUCUUGGAAAUAGCUCCCAGAAAAGCAAGCAGC
B1: no binding [1].

B2: TNF-alpha 3'-UTR ARE38 (ssRNA)
RNA: GUGAUUAUUUAUUAUUUAUUUAUUAUUUAUUUAUUUAG
B2: binds [2].

B3: TNF-alpha 3'-UTR ARE38, unlabeled competitor (ssRNA)
RNA: B2 RNA
B3: binds [3].
